Source: article PMC5084270 (The Journal of Cell Biology, 2016)

Biological target: FLAG-DDB1 (UniProt Q16531 1-1140)
Test: pull-down

FLAG-DDB1, sequence (Q16531 whole entry): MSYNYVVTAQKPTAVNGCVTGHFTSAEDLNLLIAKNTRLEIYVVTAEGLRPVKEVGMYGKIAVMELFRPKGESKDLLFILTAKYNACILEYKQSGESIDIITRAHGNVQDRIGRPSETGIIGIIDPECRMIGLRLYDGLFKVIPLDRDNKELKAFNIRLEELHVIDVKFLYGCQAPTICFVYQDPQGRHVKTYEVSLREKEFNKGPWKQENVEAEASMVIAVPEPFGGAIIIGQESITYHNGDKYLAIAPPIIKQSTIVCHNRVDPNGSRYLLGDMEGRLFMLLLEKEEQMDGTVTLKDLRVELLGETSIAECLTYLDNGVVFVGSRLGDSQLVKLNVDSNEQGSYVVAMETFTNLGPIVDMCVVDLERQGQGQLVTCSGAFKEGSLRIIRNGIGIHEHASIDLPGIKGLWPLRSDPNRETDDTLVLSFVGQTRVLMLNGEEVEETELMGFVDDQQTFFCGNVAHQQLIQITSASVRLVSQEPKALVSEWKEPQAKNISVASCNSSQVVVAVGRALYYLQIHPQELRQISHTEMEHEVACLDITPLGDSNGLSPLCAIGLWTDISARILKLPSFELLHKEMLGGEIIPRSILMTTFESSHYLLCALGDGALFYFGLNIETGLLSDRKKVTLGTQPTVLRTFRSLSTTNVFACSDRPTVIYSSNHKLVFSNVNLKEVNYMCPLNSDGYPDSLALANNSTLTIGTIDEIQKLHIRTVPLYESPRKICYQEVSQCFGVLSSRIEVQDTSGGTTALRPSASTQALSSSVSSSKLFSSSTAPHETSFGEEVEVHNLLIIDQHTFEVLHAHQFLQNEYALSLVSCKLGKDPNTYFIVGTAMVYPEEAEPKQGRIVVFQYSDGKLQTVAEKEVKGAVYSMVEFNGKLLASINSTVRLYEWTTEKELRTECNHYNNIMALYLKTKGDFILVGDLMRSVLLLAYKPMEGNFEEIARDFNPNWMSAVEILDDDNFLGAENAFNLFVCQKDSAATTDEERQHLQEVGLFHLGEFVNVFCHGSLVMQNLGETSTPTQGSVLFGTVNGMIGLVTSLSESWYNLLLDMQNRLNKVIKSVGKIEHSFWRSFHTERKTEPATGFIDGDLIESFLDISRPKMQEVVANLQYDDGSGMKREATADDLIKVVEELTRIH

binding result: binds
B1: GFP-DDB2 (natural protein)
chain: MAPKKRPETQKTSEIVLRPRNKRSRSPLELEPEAKKLCAKGSGPSRRCDSDCLWVGLAGPQILPPCRSIVRTLHQHKLGRASWPSVQQGLQQSFLHTLDSYRILQKAAPFDRRATSLAWHPTHPSTVAVGSKGGDIMLWNFGIKDKPTFIKGIGAGGSITGLKFNPLNTNQFYASSMEGTTRLQDFKGNILRVFASSDTINIWFCSLDVSASSRMVVTGDNVGNVILLNMDGKELWNLRMHKKKVTHVALNPCCDWFLATASVDQTVKIWDLRQVRGKASFLYSLPHRHPVNAACFSPDGARLLTTDQKSEIRVYSASQWDCPLGLIPHPHRHFQHLTPIKAAWHPRYNLIVVGRYPDPNFKSCTPYELRTIDVFDGNSGKMMCQLYDPESSGISSLNEFNPMGDTLASAMGYHILIWSQEEARTRK
